Measured values reported in US20230372522A1 (KUNMING SINOWAY NATURAL PHARMACEUTICALS, published 2023).

Tests used:
[1] = target: T1, recombinant human Siglec-2/CD22 Fc chimera protein (R&D systems, Cat #1968-SL) (human, UniProt P20273 20-687); assay: ELISA, immobilized human CD22 Fc chimera
T1 construct: Bought reagent, immobilized antigen in the ELISA; Fc part of the bought chimera not given

[2] = target: T1, recombinant human Siglec-2/CD22 Fc …; assay: ELISA, immobilized human CD22 Fc chimera; remark: listed apart in the source
[3] = target: T2, CD22 on Daudi cells (Daudi cell line expressing a high level of CD22) (UniProt P20273 20-847, limits assumed); assay: cell-based or functional assay
[4] = target: T2, CD22 on Daudi cells (Daudi cell line …); assay: cell-based or functional assay; remark: listed apart in the source
biotinylated CD22 = biotinylated CD22 (UniProt P20273 20-687, limits assumed, biotinylated (site not stated)); assay: Octet (BLI), biotinylated CD22 on streptavidin biosensors
[5] = target: T1, recombinant human Siglec-2/CD22 Fc …; assay: ELISA, immobilized human CD22 Fc chimera, detection with anti-Pseudomonas exotoxin A antibody

B1: Recombinant immunotoxin VH ver 1 + VL ver 4 (H1L4 by the HmLn naming of paragraph 88) (other)
VL: MDIQMTQSPSTLSASVGDRVTITCRASQDISNYLNWFQQRPGQSPRLLIYYTSILHSGVPSRFSGSGSGTDYTLTISSLQPEDFATYYCQQGNTLPWTFGCGTKVEIK
chain: MEVQLVESGGGLVKPGGSLRLSCAASGFAFSIYDMSWVRQAPGKCLEWVAYISSGGGTTYYPDSVKGRFTISRENAKNSLYLQMNSLKSEDTAMYYCARHSGYGTHWGVLFAYWGQGTMVTVSSKASGGPEGGSLAALTAHQACHLPLETFTRHRQPRGWEQLEQCGYPVQRLVALYLAARLSWNQVDQVIRNALASPGSGGDLGEAIREQPEQARLALTLAAAESERFVRQGTGNDEAGAANGPADSGDALLERNYPTGAEFLGDGGDVSFSTRGTQNWTVERLLQAHRQLEERGYVFVGYHGTFLEAAQSIVFGGVRARSQDLDAIWRGFYIAGDPALAYGYAQDQEPDARGRIRNGALLRVYVPRSSLPGFYRTSLTLAAPEAAGEVERLIGHPLPLRLDAITGPEEEGGRLETILGWPLAERTVVIPSAIPTDPRNVGGDLDPSSIPDKEQAISALPDYASQPGKPPREDLK
notes: dsFv-PE38 heterodimer
EC50, normalized against HA22 [1]: 1.17 fold of HA22
EC50 [2]: 200 pM
In Vitro potency assay (pM): EC50 of Daudi cell death, CCK-8 [3]: 13.8 pM
In Vitro potency assay (EC50, normalized against HA22) [4]: 4.12 fold of HA22

B2: Recombinant immunotoxin VH ver 2 + HA22 VL (other)
VL: MDIQMTQTTSSLSASLGDRVTISCRASQDISNYLNWYQQKPDGTVKLLIYYTSILHSGVPSRFSGSGSGTDYSLTISNLEQEDFATYFCQQGNTLPWTFGCGTKLEIK
chain: MEVQLVESGGGLVKPGGSLRLSCAASGFAFSIYDMSWVRQTPEKCLEWVAYISSGGGTTYYPDSVKGRFTISRENAKNSLYLQMNSLKSEDTAMYYCARHSGYGTHWGVLFAYWGQGTMVTVSSKASGGPEGGSLAALTAHQACHLPLETFTRHRQPRGWEQLEQCGYPVQRLVALYLAARLSWNQVDQVIRNALASPGSGGDLGEAIREQPEQARLALTLAAAESERFVRQGTGNDEAGAANGPADSGDALLERNYPTGAEFLGDGGDVSFSTRGTQNWTVERLLQAHRQLEERGYVFVGYHGTFLEAAQSIVFGGVRARSQDLDAIWRGFYIAGDPALAYGYAQDQEPDARGRIRNGALLRVYVPRSSLPGFYRTSLTLAAPEAAGEVERLIGHPLPLRLDAITGPEEEGGRLETILGWPLAERTVVIPSAIPTDPRNVGGDLDPSSIPDKEQAISALPDYASQPGKPPREDLK
notes: dsFv-PE38 heterodimer
EC50, normalized against HA22 [1]: 0.89 fold of HA22
EC50 [2]: 640 pM

B3: HA22 (moxetumomab pasudotox; HA22 VH-PE38 + HA22 VL), made in-house (other)
VL: MDIQMTQTTSSLSASLGDRVTISCRASQDISNYLNWYQQKPDGTVKLLIYYTSILHSGVPSRFSGSGSGTDYSLTISNLEQEDFATYFCQQGNTLPWTFGCGTKLEIK
chain: MEVQLVESGGGLVKPGGSLKLSCAASGFAFSIYDMSWVRQTPEKCLEWVAYISSGGGTTYYPDTVKGRFTISRDNAKNTLYLQMSSLKSEDTAMYYCARHSGYGTHWGVLFAYWGQGTLVTVSAKASGGPEGGSLAALTAHQACHLPLETFTRHRQPRGWEQLEQCGYPVQRLVALYLAARLSWNQVDQVIRNALASPGSGGDLGEAIREQPEQARLALTLAAAESERFVRQGTGNDEAGAANGPADSGDALLERNYPTGAEFLGDGGDVSFSTRGTQNWTVERLLQAHRQLEERGYVFVGYHGTFLEAAQSIVFGGVRARSQDLDAIWRGFYIAGDPALAYGYAQDQEPDARGRIRNGALLRVYVPRSSLPGFYRTSLTLAAPEAAGEVERLIGHPLPLRLDAITGPEEEGGRLETILGWPLAERTVVIPSAIPTDPRNVGGDLDPSSIPDKEQAISALPDYASQPGKPPREDLK
notes: also called CAT-8015; HA22 VH / HA22 VL
EC50, normalized against HA22 [1]: 1 fold of HA22
EC50 [2]: 470 pM
In Vitro potency assay (pM): EC50 of Daudi cell death, CCK-8 [3]: 2.72 pM
In Vitro potency assay (EC50, normalized against HA22) [4]: 1 fold of HA22
Kd (biotinylated CD22): 4080 to 5810 pM
EC50 [5]: 470 pM

B4: Recombinant immunotoxin VH ver 1 + VL ver 3 (H1L3 by the HmLn naming of paragraph 88) (other)
VL: MDIQMTQSPSTLSASVGDRVTITCRASQDISNYLNWFQQRPGQSPRRLIYYTSILHSGVPSRFSGSGSGTDYTLTISSLQPEDFATYYCQQGNTLPWTFGCGTKVEIK
chain: MEVQLVESGGGLVKPGGSLRLSCAASGFAFSIYDMSWVRQAPGKCLEWVAYISSGGGTTYYPDSVKGRFTISRENAKNSLYLQMNSLKSEDTAMYYCARHSGYGTHWGVLFAYWGQGTMVTVSSKASGGPEGGSLAALTAHQACHLPLETFTRHRQPRGWEQLEQCGYPVQRLVALYLAARLSWNQVDQVIRNALASPGSGGDLGEAIREQPEQARLALTLAAAESERFVRQGTGNDEAGAANGPADSGDALLERNYPTGAEFLGDGGDVSFSTRGTQNWTVERLLQAHRQLEERGYVFVGYHGTFLEAAQSIVFGGVRARSQDLDAIWRGFYIAGDPALAYGYAQDQEPDARGRIRNGALLRVYVPRSSLPGFYRTSLTLAAPEAAGEVERLIGHPLPLRLDAITGPEEEGGRLETILGWPLAERTVVIPSAIPTDPRNVGGDLDPSSIPDKEQAISALPDYASQPGKPPREDLK
In Vitro potency assay (pM): EC50 of Daudi cell death, CCK-8 [3]: 57.2 pM
In Vitro potency assay (EC50, normalized against HA22) [4]: 4.59 fold of HA22

B5: H2L2 humanized anti-CD22 recombinant immunotoxin (VH ver 2 + VL ver 2) (other)
VL: MDIQMTQSTSTLSASVGDRVTITCRASQDISNYLNWYQQRPDGSVKLLIYYTSILHSGVPSRFSGSGSGTDYTLTISSLQDEDFATYFCQQGNTLPWTFGCGTKVEIK
chain: MEVQLVESGGGLVKPGGSLRLSCAASGFAFSIYDMSWVRQTPEKCLEWVAYISSGGGTTYYPDSVKGRFTISRENAKNSLYLQMNSLKSEDTAMYYCARHSGYGTHWGVLFAYWGQGTMVTVSSKASGGPEGGSLAALTAHQACHLPLETFTRHRQPRGWEQLEQCGYPVQRLVALYLAARLSWNQVDQVIRNALASPGSGGDLGEAIREQPEQARLALTLAAAESERFVRQGTGNDEAGAANGPADSGDALLERNYPTGAEFLGDGGDVSFSTRGTQNWTVERLLQAHRQLEERGYVFVGYHGTFLEAAQSIVFGGVRARSQDLDAIWRGFYIAGDPALAYGYAQDQEPDARGRIRNGALLRVYVPRSSLPGFYRTSLTLAAPEAAGEVERLIGHPLPLRLDAITGPEEEGGRLETILGWPLAERTVVIPSAIPTDPRNVGGDLDPSSIPDKEQAISALPDYASQPGKPPREDLK
notes: dsFv-PE38 heterodimer
EC50, normalized against HA22 [1]: 1.1 fold of HA22
EC50 [2]: 560 pM
In Vitro potency assay (pM): EC50 of Daudi cell death, CCK-8 [3]: 4.26 pM
In Vitro potency assay (EC50, normalized against HA22) [4]: 1.23 fold of HA22
Kd (biotinylated CD22): 5010 to 7020 pM
EC50 [5]: 560 pM

B6: H1L2 humanized anti-CD22 recombinant immunotoxin (VH ver 1 + VL ver 2) (other)
VL: MDIQMTQSTSTLSASVGDRVTITCRASQDISNYLNWYQQRPDGSVKLLIYYTSILHSGVPSRFSGSGSGTDYTLTISSLQDEDFATYFCQQGNTLPWTFGCGTKVEIK
chain: MEVQLVESGGGLVKPGGSLRLSCAASGFAFSIYDMSWVRQAPGKCLEWVAYISSGGGTTYYPDSVKGRFTISRENAKNSLYLQMNSLKSEDTAMYYCARHSGYGTHWGVLFAYWGQGTMVTVSSKASGGPEGGSLAALTAHQACHLPLETFTRHRQPRGWEQLEQCGYPVQRLVALYLAARLSWNQVDQVIRNALASPGSGGDLGEAIREQPEQARLALTLAAAESERFVRQGTGNDEAGAANGPADSGDALLERNYPTGAEFLGDGGDVSFSTRGTQNWTVERLLQAHRQLEERGYVFVGYHGTFLEAAQSIVFGGVRARSQDLDAIWRGFYIAGDPALAYGYAQDQEPDARGRIRNGALLRVYVPRSSLPGFYRTSLTLAAPEAAGEVERLIGHPLPLRLDAITGPEEEGGRLETILGWPLAERTVVIPSAIPTDPRNVGGDLDPSSIPDKEQAISALPDYASQPGKPPREDLK
notes: dsFv-PE38 heterodimer, VH and VL linked by a disulfide bond
EC50, normalized against HA22 [1]: 0.81 fold of HA22
EC50 [2]: 540 pM
In Vitro potency assay (pM): EC50 of Daudi cell death, CCK-8 [3]: 4.58 pM
In Vitro potency assay (EC50, normalized against HA22) [4]: 1.32 fold of HA22
Kd (biotinylated CD22): 4660 to 7210 pM
EC50 [5]: 540 pM

B7: Recombinant immunotoxin VH ver 5 + VL ver 4 (H5L4 by the HmLn naming of paragraph 88) (other)
VL: MDIQMTQSPSTLSASVGDRVTITCRASQDISNYLNWFQQRPGQSPRLLIYYTSILHSGVPSRFSGSGSGTDYTLTISSLQPEDFATYYCQQGNTLPWTFGCGTKVEIK
chain: MEVQLVESGGGLVKPGGSLRLSCAASGFAFSIYDMSWIRQAPGKCLEWVAYISSGGGTTYYPGSVKGRFTISRENAKNSLYLQMNSLRSEDTAVYYCARHSGYGTHWGVLFAYWGQGTMVTVSSKASGGPEGGSLAALTAHQACHLPLETFTRHRQPRGWEQLEQCGYPVQRLVALYLAARLSWNQVDQVIRNALASPGSGGDLGEAIREQPEQARLALTLAAAESERFVRQGTGNDEAGAANGPADSGDALLERNYPTGAEFLGDGGDVSFSTRGTQNWTVERLLQAHRQLEERGYVFVGYHGTFLEAAQSIVFGGVRARSQDLDAIWRGFYIAGDPALAYGYAQDQEPDARGRIRNGALLRVYVPRSSLPGFYRTSLTLAAPEAAGEVERLIGHPLPLRLDAITGPEEEGGRLETILGWPLAERTVVIPSAIPTDPRNVGGDLDPSSIPDKEQAISALPDYASQPGKPPREDLK
notes: dsFv-PE38 heterodimer
EC50, normalized against HA22 [1]: 12.5 fold of HA22
EC50 [2]: 2150 pM
In Vitro potency assay (pM): EC50 of Daudi cell death, CCK-8 [3]: 34.9 pM
In Vitro potency assay (EC50, normalized against HA22) [4]: 10.7 fold of HA22

B8: Recombinant immunotoxin VH ver 4 + VL ver 4 (H4L4 by the HmLn naming of paragraph 88) (other)
VL: MDIQMTQSPSTLSASVGDRVTITCRASQDISNYLNWFQQRPGQSPRLLIYYTSILHSGVPSRFSGSGSGTDYTLTISSLQPEDFATYYCQQGNTLPWTFGCGTKVEIK
chain: MEVQLVESGGGLVKPGGSLRLSCAASGFAFSIYDMSWIRQAPGKCLEWVAYISSGGGTTYYPGSVKGRFTISRENAKNSLYLQMNSLRAGDTAVYYCARHSGYGTHWGVLFAYWGQGTMVTVSSKASGGPEGGSLAALTAHQACHLPLETFTRHRQPRGWEQLEQCGYPVQRLVALYLAARLSWNQVDQVIRNALASPGSGGDLGEAIREQPEQARLALTLAAAESERFVRQGTGNDEAGAANGPADSGDALLERNYPTGAEFLGDGGDVSFSTRGTQNWTVERLLQAHRQLEERGYVFVGYHGTFLEAAQSIVFGGVRARSQDLDAIWRGFYIAGDPALAYGYAQDQEPDARGRIRNGALLRVYVPRSSLPGFYRTSLTLAAPEAAGEVERLIGHPLPLRLDAITGPEEEGGRLETILGWPLAERTVVIPSAIPTDPRNVGGDLDPSSIPDKEQAISALPDYASQPGKPPREDLK
notes: dsFv-PE38 heterodimer; The fusion entry is used here
EC50, normalized against HA22 [1]: 39.1 fold of HA22
EC50 [2]: 6730 pM
